These results are taken from patent publication US11453711B2, “Fusion proteins of GLP-1 and GDF15 and conjugates thereof” (BEIJING QL BIOPHARMACEUTICAL CO., LTD., priority 2019, dated 2022).

Series [1] is described as follows: Body weight and food intake in lean C57BL/6 mice, lysine conjugated compounds, 15 nmol/kg daily sc 14 days. The series is classed as in vivo. Particulars: for Body weight reduction at 15 nmol/kg (% reduction compared to vehicle)(Day11) / Cumulative food intake reduction at 15 nmol/kg (% reduction compared to vehicle)(Day11): C57 mice, 15 nmol/kg daily sc; for BW reduction: 15 nmol/kg daily sc 14 days, versus Semaglutide. Here is the method:
FIGS. 1A-1F show In vivo activities of fusion proteins. To evaluate the body weight and food intake effects of the fusion proteins, 10 week old male C57BL/6J mice were dosed everyday subcutaneously with 15 nmol/kg protein for 14 days. Food intake and body weight were measured daily. FIGS. 1A and 1B show body weight loss upon protein treatments from Day1 to Day15. […] FIGS. 1D and 1E show cumulative food intake with protein treatments from Day1 to Day15. […] Vehicle: 1.42 mg/mL disodium phosphate dihydrate, 14 mg/mL propylene glycol pH7.4. Data are expressed as mean values and standard error (SEM) for FIGS. 1A, 1B and 1C. n=5 for each treatment group. For FIGS. 1D, 1E and 1F, a pooled food intake was measured for each treatment group.
10 week old male C57BL/6 mice were injected everyday subcutaneously with 15 nmol/kg of the fusion protein conjugates (i.e., MLC002, MLC 004, MLC 005, MLC 006, MLC 007, MLC 008, and MLC 009) for 14 days. Food intake and body weight were measured daily and five animals were used for each treatment group. Body weight (BW) was monitored for each individual animal, but food intake for each group animals was measured together. Day 1 and Day 14 are first day and last day of molecule dosage. % BW loss=100*(BW on Day n-BW on Day 1)/(BW on Day 1). Cumulative food intake on Day n represents sum of food intake from Day 1 to Day n. Data are indicated as mean values and standard error (SEM) or pooled values. Statistical analysis was performed by One-way ANOVA. Body weight reduction on Day 11 is calculated by −1*(% BW loss−% BW loss of vehicle group); Cumulative food intake reduction is calculated by −100*(cumulative food intake-cumulative food intake of vehicle)/cumulative food intake of vehicle.

Series [2] is described as follows: Body weight and food intake in C57BL/6 mice, fusion protein conjugates, 30 nmol/kg daily 10 days. The series is classed as in vivo. The gist of the method: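 Male C57BL/6 mice received fusion protein conjugates by daily subcutaneous injection, with dosing running from Day 1 to Day 10. Body weight was recorded daily per animal and food intake daily per group. Body weight reduction was expressed relative to vehicle percent loss from Day 1. Cumulative food intake reduction was expressed as percent decrease versus vehicle.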

Series [3] is described as follows: Efficacy in db/db mice: body weight, food intake, glucose, biomarkers, daily sc 14 days. The series is classed as in vivo. Here is the method:
FIGS. 4A-4D show In vivo efficacy in db/db mice. To evaluate the body weight, food intake and glucose effects of the fusion proteins, 8 week old male db/db mice were dosed everyday subcutaneously with 30 nmol/kg protein for 14 days. […] Compared to Vehicle control: ***, p<0.001. Data are expressed as mean values and standard error (SEM) for FIGS. 4A, 4B and 4D. n=5 for each treatment group. For FIG. 4C, a pooled food intake was measured for each treatment group.
FIGS. 5A-5F show In vivo efficacy in db/db mice. To evaluate the body weight, food intake and glucose effects of the fusion proteins, 8 week old male db/db mice were dosed everyday subcutaneously with different concentrations of proteins for 14 days. FIGS. 5A and 5B show body weight loss upon protein treatments from Day1 to Day15. […] Compared to Vehicle control: ***, p<0.001; **, p<0.01; *, p<0.05; ns, non-statistically significant; FIGS. 5D and 5E show cumulative food intake with protein treatments from Day1 to Day15. […] Compared to Vehicle control: ***, p<0.001**, p<0.01; *, p<0.05; ns, non-statistically significant. Data are expressed as mean values and standard error (SEM) for FIGS. 5A, 5B, 5C and 5F. n=5 for each treatment group. For FIGS. 5D and 5E, a pooled food intake was measured for each treatment group.
FIGS. 8A-8I show In vivo efficacy in db/db mice. To evaluate the body weight, food intake and glucose effects of the fusion proteins, 8 week old male db/db mice were dosed everyday subcutaneously with different concentrations of proteins for 14 days. […] FIGS. 8D-8F show body weight loss upon dose titrations of fusion protein conjugates. […] Data are expressed as mean values and standard error (SEM) for FIGS. 8A and 8C-I. n=5 for each treatment group. For FIG. 8B, a pooled food intake was measured for each treatment group.
Selected fusion protein conjugates are assessed in disease animal models (DIO mice, db/db mice, etc.) to determine body weight, food intake, glucose efficacy with dose responses. Some biomarkers are also measured, including fasting insulin, plasma triglyceride, cholesterol, liver triglyceride, and inflammatory biomarkers (ALT, AST and CRP).
8 week old male db/db mice were injected everyday subcutaneously with designated proteins for 14 days. Age matched lean mice were used as control. Food intake and body weight were measured daily and five animals were used for each treatment group. Fasting glucose were tested on designated days as shown in each figure. Body weight was monitored for each individual animal, but food intake for each group animals was measured together. Day 1 and Day 14 are first day and last day of molecule dosage. % BW loss=100*(BW on Day n-BW on Day 1)/(BW on Day 1). Cumulative food intake on Day n represents sum of food intake from Day 1 to Day n. Terminal blood was collected and EDTA-2K plasma was prepared and frozen at −80° C. for biomarker measurement. Liver was also collected and frozen in liquid nitrogen and store at −80° C. Data are indicated as mean values and standard error (SEM) or pooled values. Statistical analysis was performed by One-way ANOVA.

Series [4] in a line: PK study in non-human primates, single sc dose 5 nmol/kg, plasma ELISA. As to conditions: monkey, single sc dose 5 nmol/kg.
Experimental: Plasma samples were collected pre-dose (−5 min), 2 hr, 4 hr, 6 hr, 8 hr, 24 hr, 48 hr, 72 hr, 96 hr, 120 hr, 144 hr, 216 hr, 288 hr, 360 hr, 432 hr and 504 hr after the injection. The concentrations of the fusion protein conjugates in the plasma were measured by an ELISA assay which has immunoreactivity towards both GDF15 and intact N-terminal of GLP-1. Based on the graph showing plasma concentration of each protein versus time after subcutaneous injection, the pharmacokinetic parameters (including Tmax, Cmax, T1/2, AUC) were calculated by WinNonlin software.
Series [5] is described as follows: Pharmacokinetic measurement in mouse, single sc dose 30 nmol/kg, plasma ELISA. As to conditions: for Cmax: read-out: Cmax (nmol/L), single sc dose 30 nmol/kg; for AUC0-24 h / Terminal t1/2 / Tmax: single sc dose 30 nmol/kg.
Experimental: Each fusion protein was injected subcutaneously into C57BL/6 mice (n=3/group) once and plasma samples were collected at designed time points and analyzed by ELISA method. Plasma concentrations are indicated as mean values and standard error (SEM).
6-8 week old male C57BL/6 mice were administrated in a single subcutaneous dose of 30 nmol/kg of the fusion protein conjugates or unconjugated fusion proteins (i.e., MLC002, MLC004, MLC005, MLC006, MLC007, MLC008, MLC009, MLC013, MLC017, MLC047, MLC074, MLC075, MLC089, MLC093, MLC003 and MLC019) (n=3/group). Plasma samples were collected pre-dose (−5 min), 0.5 hr, 1 hr, 2 hr, 4 hr, 6 hr, 8 hr, 12 hr, 24 hr, 48 hr and 72 hr after the injection. The concentrations of the fusion protein conjugates in the plasma were measured by an ELISA assay which has immunoreactivity towards both GDF15 and intact N-terminal of GLP-1. Based on the graph showing plasma concentration of each protein versus time after subcutaneous injection, the pharmacokinetic parameters (including Tmax, Cmax, T1/2, AUC) were calculated by WinNonlin software.
[6] abbreviates: 30 nmol/kg daily 14 days, FIG. 4, versus Semaglutide.
The mark [7] stands for this setting: 30 nmol/kg, FIG. 5A-E, versus Semaglutide, Tirzepatide and MLC014.

Where a chain is given by its changes, count along the chain named.

Regarding Semaglutide [reference compound], in series [1], the “Body weight reduction at 15 nmol/kg (% reduction compared to vehicle)(Day11)” value is recorded as 7.2% and the “Cumulative food intake reduction at 15 nmol/kg (% reduction compared to vehicle)(Day11)” value worked out at 23.2%. Also, in series [2], the “Body weight reduction at 30 nmol/kg (% reduction compared to vehicle)(Day11)” value was determined as 2.6% and the “Cumulative food intake reduction at 30 nmol/kg (% reduction compared to vehicle)(Day11)” value came to 20.9%.

B1: MLC013: fusion polypeptide SEQ ID NO: 260 conjugated with Moiety A at 1K of Linker (conjugate)
chain: HGEGTFTSDVSSYLEEQAAREFIAWLVRGGGKQEPGAQPGQEPGAQPGQEPGAQPGQEPGAQPGQEPGAQPGQEPGAQPGAQPGAQPGAQPGAQPGAQPGAQPGAQPGAQPARQGDHCPLGPGRCCRLHTVRASLEDLGWADWVLSPREVQVTMCIGACPSQFRAANLHAQIKTSLHRLRPDTVPAPCCVPASYNPMVLIQRTDTGVSLQTYDDLLARDCHCI
modifications: Moiety A conjugated at linker K1
With B1, in series [2], the “Body weight reduction at 30 nmol/kg (% reduction compared to vehicle)(Day11)” value was determined as 21.4% and the “Cumulative food intake reduction at 30 nmol/kg (% reduction compared to vehicle)(Day11)” value is given as 45.2%. For the same molecule, in series [3] (setting [6]), the body weight loss entry is “sustainable and much better effect”; the food intake suppression result was “sustainable and much better effect”. Also, the glucose lowering effect entry in series [3] (30 nmol/kg daily 14 days, FIG. 4D) is recorded as “comparable glucose lowering effect to Semaglutide”. Further, in series [3] (setting [7]), the body weight loss entry is “sustainable and much better effect”; the food intake suppression result was “sustainable and much better effect”. In series [3] (FIG. 5 study), the efficacy result was “better efficacy than Semaglutide and GDF15 derivative (MLC014)”. In addition, in series [4], the “AUC0-96 h” value was 1.435 µM·h, the “Terminal t1/2” value was 26 h and the “Tmax” value was 7 h. In series [4] (read-out: Cmax (nmol/L)), the Cmax came to 41.3 nmol/L. Also, in series [5], the Cmax was 38.5 nmol/L, the “AUC0-24 h” value is 0.5035 µM·h, the “Terminal t1/2” value stood at 8.9 h and the “Tmax” value is 3.3 h.

B2: MLC007: fusion polypeptide SEQ ID NO: 254 conjugated with Moiety A at 1K of Linker (conjugate)
chain: HGEGTFTSDVSSYLEEQAAREFIAWLVRGGGKQEPGQEPGQEPGQEPGQEPGQEPGQEPGQEPGAQPGAQPARQGDHCPLGPGRCCRLHTVRASLEDLGWADWVLSPREVQVTMCIGACPSQFRAANLHAQIKTSLHRLRPDTVPAPCCVPASYNPMVLIQRTDTGVSLQTYDDLLARDCHCI
modifications: Moiety A conjugated at linker K1
For B2, in series [1], the BW reduction result was “statistically significantly enhanced BW loss efficacy than Semaglutide”, the “Body weight reduction at 15 nmol/kg (% reduction compared to vehicle)(Day11)” value was 11.3% and the “Cumulative food intake reduction at 15 nmol/kg (% reduction compared to vehicle)(Day11)” value was 21.8%. In series [5], the Cmax worked out at 10.4 nmol/L, the “AUC0-24 h” value stood at 0.0638 µM·h, the “Terminal t1/2” value was 4.7 h and the time to peak (Tmax) amounted to 0.5 h.

B3: MLC008: fusion polypeptide SEQ ID NO: 255 conjugated with Moiety A at 6K of Linker (conjugate)
chain: B2 chain with K32G, Q37K
modifications: Moiety A conjugated at linker K6
Consider B3, for which, in series [1], the “Body weight reduction at 15 nmol/kg (% reduction compared to vehicle)(Day11)” value was determined as 10.9% and the “Cumulative food intake reduction at 15 nmol/kg (% reduction compared to vehicle)(Day11)” value was 19.5%. Besides, in series [5], the Cmax worked out at 20.8 nmol/L, the “AUC0-24 h” value was 0.0822 µM·h, the “Terminal t1/2” value is 4.2 h and the “Tmax” value came to 0.7 h.

B4: MLC009: fusion polypeptide SEQ ID NO: 256 conjugated with Moiety A at 15K of Linker (conjugate)
chain: B2 chain with K32G, E46K
modifications: Moiety A conjugated at linker K15
Regarding B4, in series [1], the BW reduction result was “statistically significantly enhanced BW loss efficacy than Semaglutide”, the “Body weight reduction at 15 nmol/kg (% reduction compared to vehicle)(Day11)” value is recorded as 14.6% and the “Cumulative food intake reduction at 15 nmol/kg (% reduction compared to vehicle)(Day11)” value stood at 23.9%. In addition, in series [5], the Cmax is 17 nmol/L, the “AUC0-24 h” value stood at 0.1578 µM·h, the “Terminal t1/2” value is 4.2 h and the “Tmax” value was found to be 3.3 h.

B5: MLC006: fusion polypeptide SEQ ID NO: 253 conjugated with Moiety A at 36K of GLP-1 (conjugate)
chain: B2 chain with G30K, K32G
modifications: Moiety A conjugated at K36
For B5, in series [1], the “Body weight reduction at 15 nmol/kg (% reduction compared to vehicle)(Day11)” value was 9.3% and the “Cumulative food intake reduction at 15 nmol/kg (% reduction compared to vehicle)(Day11)” value came out at 23.0%. Also, in series [5], the Cmax was found to be 9.9 nmol/L, the “AUC0-24 h” value came to 0.0719 µM·h, the “Terminal t1/2” value was 4.4 h and the “Tmax” value was 2.7 h.

B6: MLC002: fusion polypeptide SEQ ID NO: 249 conjugated with Moiety A at 26K of GLP-1 (conjugate)
chain: B2 chain with R20K, K32G
modifications: Moiety A conjugated at K26
Regarding B6, in series [1], the “Body weight reduction at 15 nmol/kg (% reduction compared to vehicle)(Day11)” value was found to be 5.0% and the “Cumulative food intake reduction at 15 nmol/kg (% reduction compared to vehicle)(Day11)” value is recorded as 7.5%. In series [5], the Cmax turned out to be 4.6 nmol/L, the “AUC0-24 h” value came to 0.0362 µM·h, the “Terminal t1/2” value was found to be 5.0 h and the time to peak (Tmax) amounted to 1.2 h.

B7: MLC005: fusion polypeptide SEQ ID NO: 252 conjugated with Moiety A at 12K of Linker (conjugate)
chain: B2 chain with K32G, P43K
modifications: Moiety A conjugated at linker K12
Take B7: in series [1], the “Body weight reduction at 15 nmol/kg (% reduction compared to vehicle)(Day11)” value amounted to 12.6% and the “Cumulative food intake reduction at 15 nmol/kg (% reduction compared to vehicle)(Day11)” value was determined as 9.1%. Moreover, in series [5], the Cmax worked out at 16.7 nmol/L, the “AUC0-24 h” value came to 0.1172 µM·h, the “Terminal t1/2” value came to 4.2 h and the time to peak (Tmax) was found to be 2.0 h.
